Laboratory results as given in patent US20220389097A1 (Genentech, published 2022).
One block for each binder: values may come before it. Where no end group is shown, it is not given here.

How the values were obtained:
[1] = target: T1, soluble human TREM2 (sTREM2) (human, UniProt Q9NZC2 19-157); test: sandwich ELISA: test antibody coated as capture, sTREM2 from BMDM culture supernatant, biotinylated 3.17A9 as detection; normalised to 1.16B8
T1 construct: also called soluble TREM2; TREM2 ectodomain
T1 sequence: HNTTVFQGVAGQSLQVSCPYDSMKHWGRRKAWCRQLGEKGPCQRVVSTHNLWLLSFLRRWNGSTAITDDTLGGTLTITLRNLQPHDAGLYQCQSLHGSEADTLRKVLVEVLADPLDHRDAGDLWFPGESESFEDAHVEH
Excerpt: For example, as shown in an Example 11 herein, the human TREM2 ELISA assay measured binding of antibodies to sTREM2 by coating onto plate wells the antibody to be tested as capture reagents and with biotinylated IgV-reactive monoclonal antibody 3.17A9 used as the detection reagent. Control antibody 1.16B8 was used as a positive control antibody to establish the standard for sTREM2 binding.
A human TREM2 ELISA assay was used to measure binding of more than forty antibodies to soluble TREM2 (sTREM2) as follows: test anti-hTREM2 antibodies were coated onto plate wells as capture reagents and a biotinylated IgV-reactive monoclonal antibody, 3.17A9, was used as the detection reagent. Antibody 1.16B8 was used as a control antibody to establish the standard for sTREM2 binding. Plates coated with test or control antibody were incubated with diluted culture supernatant from bone marrow-derived macrophage (BMDM) cultures from transgenic mice expressing hTREM2. sTREM2 is constitutively produced by the BMDM cultures expressing hTREM2 and shed into the culture supernatant. Measurements were recorded at 450 nm for detection and 570 nm for background. The 3.17A9/1.16B8 antibody pair was selected over reagents provided in the R&D Systems kit as the commercial reagents were not compatible with sTREM2 detection of some of the antibodies tested. Control antibody 1.16B8 light chain sequence is shown in SEQ ID NO: 170, and its heavy chain sequence is shown in SEQ ID NO: 171.

human TREM2-Fc [2] = target: T2, human TREM2-Fc (human, UniProt Q9NZC2 19-174); test: SPR (Biacore T200), 37 C; TREM2-Fc on protein A chip, soluble Fab
T2 construct: also called hTREM2; not shown: Fc part (captured by anti-human IgG1 Fc or protein A)
T2 sequence: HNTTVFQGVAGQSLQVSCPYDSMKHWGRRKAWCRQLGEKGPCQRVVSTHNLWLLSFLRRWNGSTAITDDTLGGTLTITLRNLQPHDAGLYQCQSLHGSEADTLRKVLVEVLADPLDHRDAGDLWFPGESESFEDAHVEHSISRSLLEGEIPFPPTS
Procedure: (§1) Affinity of h3.10C2.v1 (FIGS. 9A-B) for human and cynomolgus TREM2 was determined by SPR in a Biacore™ T200 apparatus in two formats, both at 37° C. In one format TREM2-Fc was immobilized on protein A chips and soluble anti-TREM2 Fab fragments used as ligands. In the second format, anti-TREM2 IgG was immobilized on anti-CH1 Biacore™ chips and used soluble monomeric TREM2 as ligand.

cynomolgus TREM2-Fc [3] = target: T3, cynomolgus TREM2-Fc (cynomolgus monkey, UniProt A0A2K5UY34 49-204); test: as above
T3 construct: also called cyno TREM2; not shown: Fc part
T3 sequence: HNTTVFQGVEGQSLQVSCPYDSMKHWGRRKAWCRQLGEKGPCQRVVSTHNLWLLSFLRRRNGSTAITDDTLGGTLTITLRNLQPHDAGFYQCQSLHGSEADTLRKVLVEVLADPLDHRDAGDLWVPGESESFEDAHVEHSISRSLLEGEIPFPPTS
Procedure: as §1

human TREM2-Fc [4] = target: T2, human TREM2-Fc; test: SPR (Biacore T200), 37 C; TREM2-Fc on protein A chip, Fab in solution
Procedure: The humanized heavy chain variants were tested for affinity by combining the heavy chain variants with the 3.10C2-L1 light chain. These variants were expressed as Fab fragments, purified by protein A chromatography, and tested for affinity for TREM2-Fc coated on a protein A chip with a Biacore™ T200 apparatus.

human TREM2-Fc [5] = target: T2, human TREM2-Fc; test: SPR (Biacore T200), 37 C; TREM2-Fc on anti-human IgG1 Fc chip, Fab in solution
Procedure: (§2) Briefly, clone variants were expressed as Fab fragments and purified by anti-CH1 affinity chromatography followed by size exclusion chromatography. TREM2-Fc antigens were immobilized on anti-human IgG1 Fc Biacore™ chips and soluble Para.09 variant and 3.10C2 clone Fab fragments were bound to immobilized TREM2 at 37° C.

cynomolgus TREM2-Fc [6] = target: T3, cynomolgus TREM2-Fc; test: as above
Procedure: as §2

human TREM2 on cells = target: T4, human TREM2 on cells (human, UniProt Q9NZC2 19-230); test: cell-based or functional assay
T4 sequence: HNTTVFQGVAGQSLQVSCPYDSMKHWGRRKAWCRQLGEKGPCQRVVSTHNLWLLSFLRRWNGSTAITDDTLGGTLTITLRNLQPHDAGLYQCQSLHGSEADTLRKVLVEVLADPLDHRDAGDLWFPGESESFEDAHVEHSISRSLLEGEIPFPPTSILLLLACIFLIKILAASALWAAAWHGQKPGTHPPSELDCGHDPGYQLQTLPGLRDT

159-175 = target: T5, 159-175 (also: biotinylated (site not given here)); test: peptide ELISA with IgG, grey-scale heat map of OD650nm
T5 construct: member of the group m13
T5 peptide: ISRSLLEGEIPFPPTSI

[7] = target: T6, soluble monomeric human TREM2 (human, UniProt Q9NZC2 19-174, limits assumed); test: SPR (Biacore T200), 37 C; IgG on anti-CH1 chip, soluble monomeric TREM2
T6 construct: Not the same as shed sTREM2; also called soluble monomeric TREM2
T6 sequence: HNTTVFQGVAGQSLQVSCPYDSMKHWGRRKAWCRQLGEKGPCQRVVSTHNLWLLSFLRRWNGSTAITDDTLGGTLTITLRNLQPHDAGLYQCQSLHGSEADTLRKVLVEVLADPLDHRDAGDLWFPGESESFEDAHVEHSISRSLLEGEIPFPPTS

binding result [1]: no binding
B1: rat 3.18E5 mIgG2a LALAPG (antibody, V domains shown)
VH: EVQLVETGGSLVQPGKSLKLTCATSGFPFSNVWMHWVRQSPEKQLEWIAHIKAKSDNYATYYAESVKGRFTISRDDSKTTIYLQMNSLKEADTAIYYCTGLDYWGQGVMVTVSS
VL: DTVLTQAPLSVSVTPGESASISCRSNKSLLGIRDITSLYWYLQKPGKSPQLLIYRMSNLASGVPDRFSGSGSETDFTLKISEVETEDVGVYYCAQFLRYPYTFGPGTKLELK
notes: Mouse IgG2a LALAPG constant region

Kd (human TREM2-Fc [2]): 0.19 nM | koff (human TREM2-Fc [2]): 0.00018 s⁻¹ | kon (human TREM2-Fc [2]): 910000 M⁻¹ s⁻¹ | Kd (cynomolgus TREM2-Fc [3]): 0.22 nM | koff (cynomolgus TREM2-Fc [3]): 0.0002 s⁻¹ | kon (cynomolgus TREM2-Fc [3]): 910000 M⁻¹ s⁻¹ | koff (human TREM2-Fc [4]): 0.00019 s⁻¹ | kon (human TREM2-Fc [4]): 720000 M⁻¹ s⁻¹ | Kd (human TREM2-Fc [5]): 0.2 nM | koff (human TREM2-Fc [5]): 0.00017 s⁻¹ | kon (human TREM2-Fc [5]): 850000 M⁻¹ s⁻¹ | Kd (cynomolgus TREM2-Fc [6]): 0.22 nM | koff (cynomolgus TREM2-Fc [6]): 0.00015 s⁻¹ | kon (cynomolgus TREM2-Fc [6]): 680000 M⁻¹ s⁻¹
B2: 3.10C2 Fab (Fab, V domains shown)
VH: EVQLVETGGSLVQPGKSLKLTCATSGFPFSNVWMHWVRQSPEKQLEWIAHIKAKSDNYATYYAESVKGRFTISRDDSKTSIYLQMNSLKEDDTAIYYCTGLDYWGQGVMVTVSS
VL: DTVLTQAPLSLSVTPGESASISCRSSKSLLGVRDITSLYWYLQKPGKSPQLLIYRMSNLASGVPDRFSGSGSETDFTLKISEVETEDVGVYYCAQFLRYPYTFGPGTKLELK
notes: also called 3.10C2 (3.10C2); Rat3.10C2

EC50, Jurkat NFAT luciferase reporter cells (human TREM2 on cells): 280 ng/mL | binding result [1]: no binding
B3: rat 3.10C2 mIgG2a LALAPG (antibody, V domains shown)
VH: EVQLVETGGSLVQPGKSLKLTCATSGFPFSNVWMHWVRQSPEKQLEWIAHIKAKSDNYATYYAESVKGRFTISRDDSKTSIYLQMNSLKEDDTAIYYCTGLDYWGQGVMVTVSS
VL: DTVLTQAPLSLSVTPGESASISCRSSKSLLGVRDITSLYWYLQKPGKSPQLLIYRMSNLASGVPDRFSGSGSETDFTLKISEVETEDVGVYYCAQFLRYPYTFGPGTKLELK
notes: also called Rat 3.10C2 mIgG1a LALAPG

binding result [1]: no binding
B4: rat 3.50G1 mIgG2a LALAPG (antibody, V domains shown)
VH: EVQLVETGGSLVQPGKSLKLTCATSGFPFSNVWMHWVRQSPEKQLEWIAHIKAKSDNYATYYAESVKGRFTISRDDSKTSIYLQMNSLKDDDTAIYYCTGLDYWGQGVMVTVSS
VL: DTVLTQAPLSVSVTPGESASISCRSNKSLLGIRDITSLYWFLQKPGKSPQLLIYRMSNLASGVPDRFSGSGSETDFTLKISEVETEDVGVYYCAQFLRYPYTFGPGTKLELQ
notes: as for B1

EC50, Jurkat NFAT luciferase reporter cells (human TREM2 on cells): 40 ng/mL | binding result [1]: no binding
B5: rat Para.09- LC 3.27H7 mIgG2a LALAPG (antibody, V domains shown)
VH: EVQLVETGGSLVQPGKSLRLTCATSGFPFSNVWLHWVRQSPEKHPEWVAHIKAKSDNYATYYAESVKGRFTISRDDSKSSVFLQMNSLKEEDTAIYYCTDILEYWGQGTLVTVSS
VL: DVVLTQAPLSVSVTPGESASISCRSSRSLLTSKGITSLYWYLQKPGMSPHLLIYRMSNLASGIPDRFSGSGSETDFTLKISEVEPEDVGVYYCAQFLVYPYTFGAGTKLELKR
notes: Mouse IgG2a LALAPG constant region; also called Rat para.09 mIgG2a LALAPG; Para.09. mIgG2a LALAPG

binding result (159-175): no binding
B6: Para.09 IgG with the 3.18E5 light chain (antibody, V domains shown)
VH: EVQLVETGGSLVQPGKSLRLTCATSGFPFSNVWLHWVRQSPEKHPEWVAHIKAKSDNYATYYAESVKGRFTISRDDSKSSVFLQMNSLKEEDTAIYYCTDILEYWGQGTLVTVSS
VL: DTVLTQAPLSVSVTPGESASISCRSNKSLLGIRDITSLYWYLQKPGKSPQLLIYRMSNLASGVPDRFSGSGSETDFTLKISEVETEDVGVYYCAQFLRYPYTFGPGTKLELK

binding result (159-175): no binding | Kd [7]: 0.011 nM | koff [7]: 2.1e-05 s⁻¹ | kon [7]: 2e+06 M⁻¹ s⁻¹
B7: Para.09 IgG with the 3.27H7 light chain (antibody, V domains shown)
VH: EVQLVETGGSLVQPGKSLRLTCATSGFPFSNVWLHWVRQSPEKHPEWVAHIKAKSDNYATYYAESVKGRFTISRDDSKSSVFLQMNSLKEEDTAIYYCTDILEYWGQGTLVTVSS
VL: DVVLTQAPLSVSVTPGESASISCRSSRSLLTSKGITSLYWYLQKPGMSPHLLIYRMSNLASGIPDRFSGSGSETDFTLKISEVEPEDVGVYYCAQFLVYPYTFGAGTKLELK
notes: also called rat Para.09; Para.09-L27H7

binding result (159-175): no binding
B8: Para.09 IgG with the 3.50G1 light chain (antibody, V domains shown)
VH: EVQLVETGGSLVQPGKSLRLTCATSGFPFSNVWLHWVRQSPEKHPEWVAHIKAKSDNYATYYAESVKGRFTISRDDSKSSVFLQMNSLKEEDTAIYYCTDILEYWGQGTLVTVSS
VL: DTVLTQAPLSVSVTPGESASISCRSNKSLLGIRDITSLYWFLQKPGKSPQLLIYRMSNLASGVPDRFSGSGSETDFTLKISEVETEDVGVYYCAQFLRYPYTFGPGTKLELQ

binding result (159-175): no binding
B9: Para.09 IgG with the 3.10C2 light chain (antibody, V domains shown)
VH: EVQLVETGGSLVQPGKSLRLTCATSGFPFSNVWLHWVRQSPEKHPEWVAHIKAKSDNYATYYAESVKGRFTISRDDSKSSVFLQMNSLKEEDTAIYYCTDILEYWGQGTLVTVSS
VL: DTVLTQAPLSLSVTPGESASISCRSSKSLLGVRDITSLYWYLQKPGKSPQLLIYRMSNLASGVPDRFSGSGSETDFTLKISEVETEDVGVYYCAQFLRYPYTFGPGTKLELK

binding result [1]: no binding
B10: rat 3.27H7 mIgG2a LALAPG (antibody, V domains shown)
VH: EVQLVETGGSLVQPGGSLKLTCATSGFPFSNVWLHWIRRSPEKQLEWVAQIKARSDNYATYYAESVKGRFIVSRDDSKTTIYLQMNNLKEEDTAIYYCTGLDYWGQGVMVTVSS
VL: DVVLTQAPLSVSVTPGESASISCRSSRSLLTSKGITSLYWYLQKPGMSPHLLIYRMSNLASGIPDRFSGSGSETDFTLKISEVEPEDVGVYYCAQFLVYPYTFGAGTKLELK
notes: as for B1
